Assay [1] addresses Hemoglobin. Description: competitive ECL 5-FU assay, Bi-61C6 beads and TAG Plus 1-5C-5-FU-BSA, hemoglobin 10 mg/mL in plasma with 75 ng/mL spiked 5-FU.
In assay [2] the target is Hemoglobin. Description: competitive ECL 5-FU assay, Bi-61C6 beads and TAG Plus 1-5C-5-FU-BSA, hemoglobin 10 mg/mL in plasma without 5-FU.
In assay [3] the target is Hemoglobin. Description: competitive ECL 5-FU assay, Bi-61C6 beads and TAG Plus 1-5C-5-FU-BSA, hemoglobin 10 mg/mL in plasma with 1000 ng/mL spiked 5-FU.

B1: monoclonal antibody 61C6 (antibody, mouse IgG2b, kappa, V domains shown)
VH: QIQLVQSGPELKKPGETVTISCKASGYTLTNYGMNWVKQAPGKGLKWMGWINTNSGEPTYVEEFKGRFAFSLETSVSTVYLQISDLKHEDTATYFCARWGPHFNAYGWFAYWGQGTLVTVSA
VL: YIQMTQTASSLSASLGDRVTISCRASQDIWNYLNWYQQKPDGTIKLLIYYKSRLHSGVPSRFSGSGSGIDFSLTISNLEQEDFATYFCQQGHTLPWTFGGGSKLEIKR
modifications: biotinylated on primary amines with EZ-Link Sulfo-NHS-LC-Biotin (positions not stated)
Consider B1, for which the figures for the % Cross-React in assay [1], in assay [2] and in assay [3] were 0%, 0% and -0.1%, respectively.

For the origin of these results see patent US20150079612A1.
